According to publication PMC4097884:
pKd: −log10 of the molar value.

What was measured:
[1] = target: 3K peptide peptide on I-Ab (mouse); test: SPR, equilibrium
[2] = target: FMRKA peptide, from an IA^b-random peptide baculovirus library peptide on I-Ab (mouse); test: SPR, equilibrium

pKd [1]: 4.49
pKd [2]: 4.66
Substance: J809.B5 αY31A
